How the values were obtained:
[1] = biological target: T1, human TNFR1 on cells (HT1080, HeLa, Kym-1) (human, UniProt P19438 30-455); experiment: cell-based or functional assay
T1 sequence (looked up): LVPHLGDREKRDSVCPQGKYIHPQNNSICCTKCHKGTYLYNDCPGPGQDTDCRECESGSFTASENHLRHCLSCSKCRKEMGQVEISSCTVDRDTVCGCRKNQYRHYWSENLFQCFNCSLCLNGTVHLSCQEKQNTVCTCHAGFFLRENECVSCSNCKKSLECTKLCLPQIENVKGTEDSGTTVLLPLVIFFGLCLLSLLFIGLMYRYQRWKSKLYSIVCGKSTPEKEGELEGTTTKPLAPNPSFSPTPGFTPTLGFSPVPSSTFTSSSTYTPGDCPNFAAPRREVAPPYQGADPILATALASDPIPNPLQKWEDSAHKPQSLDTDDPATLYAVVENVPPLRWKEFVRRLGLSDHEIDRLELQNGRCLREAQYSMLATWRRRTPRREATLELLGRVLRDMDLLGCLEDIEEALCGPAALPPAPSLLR

[2] = biological target: T1, human TNFR1 on cells (HT1080, HeLa, …); experiment: cell-based or functional assay; remark: listed apart in the source
[3] = biological target: T2, human TNFR1-Fc fusion protein (human, UniProt P19438 29-211); experiment: standard ELISA, human TNFR1-Fc
T2 construct: range 29-211; Made in stably transfected HEK293 cells; coated on ELISA plates or immobilised on QCM chips; also called huTNFR1-Fc; human TNFR-Fc; not shown: Fc part from vector pSecTagL1-Fc
T2 sequence (looked up): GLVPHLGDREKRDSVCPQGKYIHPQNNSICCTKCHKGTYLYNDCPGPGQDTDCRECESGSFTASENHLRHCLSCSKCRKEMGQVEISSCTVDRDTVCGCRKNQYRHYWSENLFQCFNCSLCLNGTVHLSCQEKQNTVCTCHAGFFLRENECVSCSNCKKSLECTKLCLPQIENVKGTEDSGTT
Description: (§1) FIG. 1. […] Applied were triplicates of five concentrations between 3.9 nM and 62.5 nM.
(§2) Microtiter plates were coated with 100 µl of the indicated protein (1 µg/ml in PBS, see Table 3.3) and incubated at 4° C. over night. The residual binding sites were blocked with 2% MPBS (skim milk in PBS, 200 µl per well) at room temperature for 2 hours and subsequently washed twice with PBS. 100 µl of the samples diluted in 2% MPBS were incubated at room temperature for 1 hour prior to the last incubation step with 100 µl of the HRP conjugated detection antibodies in 2% MPBS. In the case of competition experiments, both analyzed protein samples were prepared individually (either titrated or diluted to a single concentration) and mixed before they were applied to the plate. Bound protein was detected with 100 µl TMB substrate solution, the HRP-reaction was stopped by the addition of 50 µl 1 M H2SO4 and the absorption at the wavelength of 450 nm was measured using the Infinite microtiter plate reader (TECAN, Maennedorf, Switzerland). Between each incubation step and in advance of the detection, the plates were washed three times with PBST and twice with PBS.

[4] = biological target: T2, human TNFR1-Fc fusion protein; experiment: QCM, human TNFR1-Fc immobilised, low receptor density (48 Hz)
Description: (§3) Real-time binding dynamics in protein-protein interactions were determined by quartz crystal microbalance measurements (A-100 C-Fast or Cell-200 C-Fast, Attana, Stockholm, Sweden). One of the binding partners (ligand, e.g. TNFR1-Fc) was chemically immobilized on a carboxyl sensor chip according to the manufacturer's protocol at different densities (nearly 200 Hz in the case of saturating conditions to confirm previously published results and 50-100 Hz, in particular at about 50 Hz, to establish conditions of lower receptor density, better resembling the situation on the cellular surface). Binding experiments were performed with samples (analyte) diluted in PBST (PBS, 0.1% Tween 20) at pH 7.4 with a flow rate of 25 µl/min at 37° C. The chip was regenerated with 25 µl 5 mM NaOH or 20 mM glycine, pH 2.0. Every third measurement, an injection of running buffer was measured which was subtracted from the binding curve. Data were collected using the software provided by Attana for the particular device and analyzed by Attaché Office Evaluation software (Attana, Stockholm, Sweden) and TraceDrawe (ridgview instruments, Vange, Sweden).

[5] = biological target: T2, human TNFR1-Fc fusion protein; experiment: QCM, human TNFR1-Fc immobilised, high receptor density (195 Hz)
Description: as §1, §3

[6] = biological target: T2, human TNFR1-Fc fusion protein; experiment: ELISA on coated human TNFR1-Fc, reference curve next to Fv13.7-Fckih0DS
Description: as §2

B1: ATROSAB (antibody, IgG1, V domains shown)
VH: QVQLVQSGAEVKKPGSSVKVSCKASGYTFTDFYINWVRQAPGQGLEWIGEIYPYSGHAYYNEKFKARVTITADKSTSTAYMELSSLRSEDTAVYYCARWDFLDYWGQGTTVTVSS
VL: DIVMTQSPLSLPVTPGEPASISCRSSQSLLHSNGNTYLHWYLQKPGQSPQLLIYTVSNRFSGVPDRFSGSGSGTDFTLKISRVEAEDVGVYYCSQSTHVPYTFGGGTKVEIKR
notes: Humanized full-length IgG1 with a modified Fc region deficient in mediating effector functions (made according to WO2012035141); also called full length IgG ATROSAB
- Factor, IC50 LT (ATROSAB against H398) [1]: 12 fold
- Factor, IC50 TNF (ATROSAB against H398) [1]: 10 fold
- IC50, LT [nM] (inhibition of IL-8 release from HT1080 cells induced by LTα) [1]: 7.6 nM
- IC50, TNF [nM] (inhibition of IL-8 release from HT1080 cells induced by 0.1 nM TNF) [1]: 42 nM
- IC50, Cytotox (nM); inhibition of Kym-1 cell death by 0.01 nM TNF [2]: 24 nM
- IC50, IL-6 (nM); inhibition of the response of HeLa cells to 0.1 nM TNF [2]: 179 nM
- IC50, IL-8 (nM); inhibition of the response of HT1080 cells to 0.1 nM TNF [2]: 118 nM
- IL-6 release (pg/ml), HeLa cells [2]: 231 pg/mL
- IL-8 release (pg/ml), HT1080 cells [2]: 240 pg/mL
- EC50 [3]: 0.25 nM
- Factor (EC50, ATROSAB against H398) [3]: 1.7 fold
- Factor (KD low density chip, ATROSAB against H398) [4]: 2.8 fold
- Factor (koff low density chip, ATROSAB against H398) [4]: 7.6 fold
- Kd [4]: 4.5 nM
- fold faster kon than H398 [4]: 2.6 fold
- koff [4]: 0.0047 s⁻¹
- Factor (KD high density chip, ATROSAB against H398) [5]: 1.5 fold
- Kd [5]: 0.35 nM
- EC50 (read off the curve) [6]: ~0.2 nM
